For assay [1], the target named is hFV-810 (constitutively active partial B-domainless form of human FV) (human, UniProt P12259 29-2224).
Assay [2] has as its target T1, pt-rFVa (pt-rFV processed by thrombin) (Pseudonaja textilis, UniProt Q7SZN0 31-772; Q7SZN0 819-1460).
T1 sequence (heavy): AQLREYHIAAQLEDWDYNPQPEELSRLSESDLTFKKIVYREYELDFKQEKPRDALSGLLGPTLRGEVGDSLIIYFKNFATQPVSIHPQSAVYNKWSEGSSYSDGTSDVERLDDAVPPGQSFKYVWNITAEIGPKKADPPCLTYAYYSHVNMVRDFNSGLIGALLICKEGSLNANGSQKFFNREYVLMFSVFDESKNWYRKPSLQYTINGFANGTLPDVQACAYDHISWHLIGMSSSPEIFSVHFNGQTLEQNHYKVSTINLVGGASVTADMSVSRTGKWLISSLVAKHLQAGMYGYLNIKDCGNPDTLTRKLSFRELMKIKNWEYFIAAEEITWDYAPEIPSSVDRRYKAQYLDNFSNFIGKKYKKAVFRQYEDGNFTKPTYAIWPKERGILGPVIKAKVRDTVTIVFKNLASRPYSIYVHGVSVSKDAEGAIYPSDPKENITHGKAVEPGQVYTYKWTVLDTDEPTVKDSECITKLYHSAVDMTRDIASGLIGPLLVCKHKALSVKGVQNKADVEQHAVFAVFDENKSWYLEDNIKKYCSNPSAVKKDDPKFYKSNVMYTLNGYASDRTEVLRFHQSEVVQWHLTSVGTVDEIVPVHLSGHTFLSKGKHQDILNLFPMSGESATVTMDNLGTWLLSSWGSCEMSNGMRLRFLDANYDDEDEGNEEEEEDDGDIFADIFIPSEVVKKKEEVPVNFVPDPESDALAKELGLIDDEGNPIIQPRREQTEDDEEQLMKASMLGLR
T1 sequence (light): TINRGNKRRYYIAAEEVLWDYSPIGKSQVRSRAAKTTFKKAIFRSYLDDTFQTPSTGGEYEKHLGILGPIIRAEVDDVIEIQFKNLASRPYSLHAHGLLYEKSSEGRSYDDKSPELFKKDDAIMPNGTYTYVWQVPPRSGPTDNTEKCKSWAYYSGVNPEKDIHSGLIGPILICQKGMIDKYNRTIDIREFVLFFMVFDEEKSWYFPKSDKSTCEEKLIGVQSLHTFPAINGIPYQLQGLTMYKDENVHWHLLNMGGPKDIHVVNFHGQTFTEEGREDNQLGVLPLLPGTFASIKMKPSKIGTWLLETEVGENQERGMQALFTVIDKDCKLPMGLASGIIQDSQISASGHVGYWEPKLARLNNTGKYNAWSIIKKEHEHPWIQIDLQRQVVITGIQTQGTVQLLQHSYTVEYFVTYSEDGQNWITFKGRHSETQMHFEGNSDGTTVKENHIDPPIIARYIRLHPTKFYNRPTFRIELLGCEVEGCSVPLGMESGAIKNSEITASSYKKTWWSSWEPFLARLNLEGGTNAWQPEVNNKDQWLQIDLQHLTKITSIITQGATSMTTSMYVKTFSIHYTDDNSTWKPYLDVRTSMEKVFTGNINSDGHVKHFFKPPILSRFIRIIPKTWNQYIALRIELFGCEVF

The target in assay [3] is T2, recombinant venom-derived factor V from Pseudonaja textilis (pt-rFV) (Pseudonaja textilis, UniProt Q7SZN0 31-1460).
T2 sequence: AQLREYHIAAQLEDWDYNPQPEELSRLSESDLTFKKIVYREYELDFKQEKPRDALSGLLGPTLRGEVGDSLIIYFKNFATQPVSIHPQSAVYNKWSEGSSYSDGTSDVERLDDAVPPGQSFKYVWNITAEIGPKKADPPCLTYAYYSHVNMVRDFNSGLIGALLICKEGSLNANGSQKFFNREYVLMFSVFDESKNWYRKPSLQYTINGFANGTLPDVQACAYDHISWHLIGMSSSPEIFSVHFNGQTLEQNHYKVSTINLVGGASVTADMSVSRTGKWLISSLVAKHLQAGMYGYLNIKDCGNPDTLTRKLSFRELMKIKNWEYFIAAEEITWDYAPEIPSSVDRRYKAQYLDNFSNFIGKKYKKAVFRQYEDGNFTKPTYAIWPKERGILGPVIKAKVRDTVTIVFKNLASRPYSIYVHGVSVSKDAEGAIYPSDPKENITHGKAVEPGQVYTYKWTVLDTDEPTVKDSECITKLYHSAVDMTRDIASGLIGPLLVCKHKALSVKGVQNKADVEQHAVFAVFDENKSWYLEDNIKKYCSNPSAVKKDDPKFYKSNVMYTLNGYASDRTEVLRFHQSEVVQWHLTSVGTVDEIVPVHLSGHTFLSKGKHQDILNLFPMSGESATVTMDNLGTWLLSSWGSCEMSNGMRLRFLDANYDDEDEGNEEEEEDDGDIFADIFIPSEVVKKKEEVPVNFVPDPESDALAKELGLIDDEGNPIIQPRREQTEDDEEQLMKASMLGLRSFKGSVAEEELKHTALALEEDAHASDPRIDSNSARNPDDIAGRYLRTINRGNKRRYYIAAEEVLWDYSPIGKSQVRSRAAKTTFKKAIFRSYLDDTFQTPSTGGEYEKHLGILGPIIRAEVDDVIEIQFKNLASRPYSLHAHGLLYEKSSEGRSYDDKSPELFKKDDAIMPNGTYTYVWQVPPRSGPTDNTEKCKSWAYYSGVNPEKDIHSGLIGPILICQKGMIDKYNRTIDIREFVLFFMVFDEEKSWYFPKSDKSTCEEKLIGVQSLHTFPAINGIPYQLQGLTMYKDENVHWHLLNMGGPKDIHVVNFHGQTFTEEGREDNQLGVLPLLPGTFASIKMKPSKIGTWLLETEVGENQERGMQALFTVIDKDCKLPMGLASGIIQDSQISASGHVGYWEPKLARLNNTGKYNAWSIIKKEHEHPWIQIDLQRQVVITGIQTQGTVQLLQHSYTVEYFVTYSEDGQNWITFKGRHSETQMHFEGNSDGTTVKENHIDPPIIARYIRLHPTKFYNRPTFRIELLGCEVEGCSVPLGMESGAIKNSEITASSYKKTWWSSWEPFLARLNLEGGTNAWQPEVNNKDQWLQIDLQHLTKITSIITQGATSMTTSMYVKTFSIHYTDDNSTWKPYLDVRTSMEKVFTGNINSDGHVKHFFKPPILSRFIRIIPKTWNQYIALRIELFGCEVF

Assay [4] addresses T1, pt-rFVa (pt-rFV processed by thrombin). Description: fluorescent binding measurements, membrane-bound human FXa (data not shown).
Assay [5] has as its target T2, recombinant venom-derived factor V from …. Described as above.

Several values for one entry are separate records, joined by “and”; a condition that tells them apart may be missing. Equal values may be shown once. Read-outs that look alike come from different tables or passages of the source. Where only a bound is given, the exact number is not on record here.

The record followed here is patent US8557762 (CHILDREN S HOSPITAL OF PHILADELPHIA, dated 2013).

Chain of hFV-810 (constitutively active partial B-domainless form of human FV) (P12259 other isoform, or with tags, fused parts or gaps limits assumed): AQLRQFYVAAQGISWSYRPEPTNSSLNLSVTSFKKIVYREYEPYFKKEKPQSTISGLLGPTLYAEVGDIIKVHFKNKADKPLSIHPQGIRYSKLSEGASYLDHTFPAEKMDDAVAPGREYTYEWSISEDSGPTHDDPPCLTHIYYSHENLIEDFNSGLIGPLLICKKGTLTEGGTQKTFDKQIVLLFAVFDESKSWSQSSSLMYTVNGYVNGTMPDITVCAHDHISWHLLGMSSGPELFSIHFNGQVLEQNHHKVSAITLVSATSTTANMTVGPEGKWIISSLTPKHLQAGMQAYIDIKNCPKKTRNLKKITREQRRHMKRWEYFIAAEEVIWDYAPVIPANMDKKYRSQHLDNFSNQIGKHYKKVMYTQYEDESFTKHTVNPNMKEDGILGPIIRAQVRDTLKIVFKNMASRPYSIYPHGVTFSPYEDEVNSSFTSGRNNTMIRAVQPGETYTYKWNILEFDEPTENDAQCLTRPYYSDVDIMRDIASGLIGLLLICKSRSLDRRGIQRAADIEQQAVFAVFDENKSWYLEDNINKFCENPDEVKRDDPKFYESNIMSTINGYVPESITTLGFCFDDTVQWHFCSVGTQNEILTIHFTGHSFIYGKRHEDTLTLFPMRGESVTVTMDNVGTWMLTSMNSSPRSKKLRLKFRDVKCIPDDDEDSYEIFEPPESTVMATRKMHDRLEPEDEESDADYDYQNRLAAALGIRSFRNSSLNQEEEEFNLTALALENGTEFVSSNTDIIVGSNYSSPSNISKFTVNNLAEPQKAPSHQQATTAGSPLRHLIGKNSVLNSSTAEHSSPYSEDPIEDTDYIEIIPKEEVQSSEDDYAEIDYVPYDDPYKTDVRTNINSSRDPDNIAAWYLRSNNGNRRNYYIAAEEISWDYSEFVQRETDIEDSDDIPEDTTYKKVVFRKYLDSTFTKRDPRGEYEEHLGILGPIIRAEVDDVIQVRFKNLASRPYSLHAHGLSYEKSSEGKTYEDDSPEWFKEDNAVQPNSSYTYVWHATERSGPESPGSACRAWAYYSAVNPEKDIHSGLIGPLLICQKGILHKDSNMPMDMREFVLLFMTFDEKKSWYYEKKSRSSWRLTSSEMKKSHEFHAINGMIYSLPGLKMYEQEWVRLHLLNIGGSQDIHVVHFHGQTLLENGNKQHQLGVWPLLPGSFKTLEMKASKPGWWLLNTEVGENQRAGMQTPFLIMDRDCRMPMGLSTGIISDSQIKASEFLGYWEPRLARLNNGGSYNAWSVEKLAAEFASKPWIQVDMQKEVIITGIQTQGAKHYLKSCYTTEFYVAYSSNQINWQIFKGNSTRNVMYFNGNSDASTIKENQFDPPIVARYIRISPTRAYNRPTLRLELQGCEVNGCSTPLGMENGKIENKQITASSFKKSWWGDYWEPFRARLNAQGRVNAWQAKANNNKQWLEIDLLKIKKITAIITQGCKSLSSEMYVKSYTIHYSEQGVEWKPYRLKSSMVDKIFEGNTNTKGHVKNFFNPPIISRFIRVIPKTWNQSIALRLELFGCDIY

B1: purified enzymatic subunit of pseutarin C (pt-FXa) (enzyme)
chain 1: ANSLVEEFKSGNIERECIEERCSKEEAREVFEDDEKTETFWNVYVDGDQCSSNPCHYRGICKDGIGSYTCTCLSGYEGKNCERVLYKSCRVDNGNCWHFCKSVQNDIQCSCAEGYLLGEDGHSCVAGGNFSCGRNIKTRNK
chain 2: IVNGMDCKLGECPWQAALVDDKKGVFCGGTILSPIYVLTAAHCINETETISVVVGEIDRSRAETGPLLSVDKVYVHKKFVPPKKSQEFYEKFDLVSYDYDIAIIQMKTPIQFSENVVPACLPTADFANQVLMKQDFGIVSGFGGIFERGPNSKTLKVLKVPYVDRHTCMLSSNFPITPTMFCAGYDTLPQDACQGDSGGPHITAYRDTHFITGIVSWGEGCARKGRYGIYTKLSKFIPWIKRIMRQKLPSTESSTGRL
For the molecule B1, the Kd (usually a measure of binding affinity in units of concentration) is 3.76 nM in assay [1]; 3.84 nM and 7.54 nM in assay [2]; 3.06 nM and 8.08 nM in assay [3].

B2: human factor Xa (membrane-bound human FXa) (enzyme)
chain 1: ANSFLEEMKKGHLERECMEETCSYEEAREVFEDSDKTNEFWNKYKDGDQCETSPCQNQGKCKDGLGEYTCTCLEGFEGKNCELFTRKLCSLDNGDCDQFCHEEQNSVVCSCARGYTLADNGKACIPTGPYPCGKQTLER
chain 2: IVGGQECKDGECPWQALLINEENEGFCGGTILSEFYILTAAHCLYQAKRFKVRVGDRNTEQEEGGEAVHEVEVVIKHNRFTKETYDFDIAVLRLKTPITFRMNVAPACLPERDWAESTLMTQKTGIVSGFGRTHEKGRQSTRLKMLEVPYVDRNSCKLSSSFIITQNMFCAGYDTKQEDACQGDSGGPHVTRFKDTYFVTGIVSWGEGCARKGKYGIYTKVTAFLKWIDRSMKTRGLPKAKSHAPEVITSSPLK
notes: also called rFXa; human rFXa
In the case of B2, the Kd in assay [4] and in assay [5] was greater than 400 nM in each case.
